This data set concerns the molecule itself. The experiment in a line: analytical size exclusion chromatography with multi-angle light scattering (SEC-MALS); self-association (homodimer).

B1: DHR49 (designed helical repeat protein 49) (other)
chain: MDSEEEQERIRRILKEARKSGTEESLRQAIEDVAQLAKKSQDSEVLEEAIRVILRIAKESGSEEALRQAIRAVAEIAKEAQDSEVLEEAIRVILRIAKESGSEEALRQAIRAVAEIAKEAQDPRVLEEAIRVIRQIAEESGSEEARRQAERAEEEIRRRAQGWLEHHHHHH
On to B1, for which the binding result is given as “binds”.

B2: DHR76 (designed helical repeat protein 76) (other)
chain: MNPELEEWIRRAKEVAKEVEKVAQRAEEEGNPDLRDSAKELRRAVEEAIEEAKKQGNPELVEWVARAAKVAAEVIKVAIQAEKEGNRDLFRAALELVRAVIEAIEEAVKQGNPELVEWVARAAKVAAEVIKVAIQAEKEGNRDLFRAALELVRAVIEAIEEAVKQGNPELVERVARLAKKAAELIKRAIRAEKEGNRDERREALERVREVIERIEELVRQGGWLEHHHHHH
Regarding B2, the binding result is listed as “binds”.
